Experimental data reported in PMC3829167, “Directed Evolution of an Angiopoietin-2 Ligand Trap by Somatic Hypermutation and Cell Surface Display*” (The Journal of Biological Chemistry, 2013).
Residue numbers refer to the chain shown, from its start. In names and notes the source's numbering stands.

T1: human angiopoietin 1 (human, UniProt Q15389 16-498)
T1 construct: human angiopoietin 1 (Ang1), recombinant protein from R&D Systems; in the other experiments it was detected with anti-Ang1 or immobilised; also called Ang1; source: bought: R&D Systems
T1 sequence (looked up): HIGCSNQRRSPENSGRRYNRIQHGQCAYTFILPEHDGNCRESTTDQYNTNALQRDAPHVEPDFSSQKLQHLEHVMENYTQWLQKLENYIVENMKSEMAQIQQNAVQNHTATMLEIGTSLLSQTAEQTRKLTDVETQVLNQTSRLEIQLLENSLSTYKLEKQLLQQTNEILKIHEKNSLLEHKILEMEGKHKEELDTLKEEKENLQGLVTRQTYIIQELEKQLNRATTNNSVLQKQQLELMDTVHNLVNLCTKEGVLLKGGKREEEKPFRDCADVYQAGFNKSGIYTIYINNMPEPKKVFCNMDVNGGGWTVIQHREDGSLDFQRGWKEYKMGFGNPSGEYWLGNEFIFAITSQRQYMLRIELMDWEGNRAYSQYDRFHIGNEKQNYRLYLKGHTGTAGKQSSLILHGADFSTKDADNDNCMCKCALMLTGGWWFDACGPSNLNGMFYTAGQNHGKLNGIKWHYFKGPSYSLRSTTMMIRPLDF

T2: human angiopoietin 2 (human, UniProt O15123 19-496)
T2 construct: human angiopoietin 2 (Ang2), recombinant protein from R&D Systems; also called Ang2; source: bought: R&D Systems
T2 sequence (looked up): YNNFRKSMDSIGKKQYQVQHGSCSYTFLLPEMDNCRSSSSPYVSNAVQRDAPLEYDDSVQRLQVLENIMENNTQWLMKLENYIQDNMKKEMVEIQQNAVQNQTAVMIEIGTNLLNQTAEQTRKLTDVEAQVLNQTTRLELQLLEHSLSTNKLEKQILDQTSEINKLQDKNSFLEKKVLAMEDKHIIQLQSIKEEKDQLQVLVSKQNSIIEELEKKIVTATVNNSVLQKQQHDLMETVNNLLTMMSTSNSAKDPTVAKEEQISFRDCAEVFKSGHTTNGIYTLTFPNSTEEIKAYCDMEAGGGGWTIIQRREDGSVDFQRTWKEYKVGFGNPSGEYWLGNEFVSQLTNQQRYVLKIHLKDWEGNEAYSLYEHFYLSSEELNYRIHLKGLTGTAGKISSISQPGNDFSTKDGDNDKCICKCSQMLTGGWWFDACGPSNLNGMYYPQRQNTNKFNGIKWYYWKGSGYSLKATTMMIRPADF

B1: soluble Tie2 ectodomain (1-442)-Fc fusion protein with F161I substitution (Fc fusion, human, UniProt Q02763 23-442, looked up)
chain: AMDLILINSLPLVSDAETSLTCIASGWRPHEPITIGRDFEALMNQHQDPLEVTQDVTREWAKKVVWKREKASKINGAYFCEGRVRGEAIRIRTMKMRQQASFLPATLTMTVDKGDNVNISFKKVLIKEEDAVIYKNGSIIHSVPRHEVPDILEVHLPHAQPQDAGVYSARYIGGNLFTSAFTRLIVRRCEAQKWGPECNHLCTACMNNGVCHEDTGECICPPGFMGRTCEKACELHTFGRTCKERCSGQEGCKSYVFCLPDPYGCSCATGWKGLQCNEACHPGFYGPDCKLRCSCNNGEMCDRFQGCLCSPGWQGLQCEREGIQRMTPKIVDLPDHIEVNSGKFNPICKASGWPLPTNEEMTLVKPDGTVLHPKDFNHTDHFSVAIFTIHRILPPDSGVWVCSVNTVAGMVEKPFNISVK
notes: signal peptide in the construct; human Tie2 ectodomain, residues 1-442, F161I; also called F/I; F161I ectodomain; source: HEK293 cells, transfected, secreted, purified (nickel-nitrilotriacetic acid chromatography); not shown: Fc (human), C-terminal, kept
B2: soluble evolved (R3) Tie2 ectodomain (1-442)-Fc fusion protein (Fc fusion, human, UniProt Q02763 23-442, looked up)
chain: AMDLILINSLPLVSDAETSLTCIASGWRPHEPITIGRDFEALMNQHQDPLEVTQDVTREWAKKVVWKREKASKINGAYFCEGRVRGEAIRIRTMKMRQQASFLPATLTMTVDKGDNVNISFKKVLIKEEDAVIYKNGSIIHSVPEVPDILEVHLPHAQPQDAGVYSARYIGGNLFTSAFTRLIVRRCEAQKWGPECNHLCTACMNNGVCHEDTGECICPPGFMGRTCEKACELHTFGRTCKERCSGQEGCKSYVFCLPDPYGCSCATGWKGLQCNEACHPGFYGPDCKLRCSCNNGEMCDRFQGCLCSPGWQGLQCEREGIQRMTPKIVDLPDHIEVNSGKFNPICKASGWPLPTNEEMTLVKPDGTVLHPKDFNHTDHFSVAIFTIHRILPPDSGVWVCSVNTVAGMVEKPFNISVK
notes: signal peptide in the construct; human Tie2 ectodomain, residues 1-442, with F161I and the deletion of Arg-167/His-168 introduced by site-directed mutagenesis; The changes were found by directed evolution and put into m3 by site-directed mutagenesis; also called evolved ectodomain; R3 ectodomain; source: HEK293 cells, transfected, secreted, purified (nickel-nitrilotriacetic acid chromatography); …
B3: soluble Tie2 ectodomain (1-442)-Fc fusion protein with the double Arg-167/His-168 deletion (Fc fusion, human, UniProt Q02763 23-442, looked up)
chain: B2 chain with I139F
notes: signal peptide in the construct; human Tie2 ectodomain, residues 1-442, Arg-167 and His-168 deleted; also called ΔRH; ΔArg-167/His-168; source: HEK293 cells, transfected, secreted, purified (nickel-nitrilotriacetic acid chromatography); not shown: Fc (human), C-terminal, kept

molecular target: T1, human angiopoietin 1; test: ELISA; 5 μg/ml Ang1 or Ang2 immobilised in 96-well plates; blocked with TBS, 1 mg/ml BSA, 0.1% Triton-X 100; ectodomain-Fc fusion protein bound for 1 h at different concentrations, detected with anti-Tie2 ectodomain antibodies; saturation binding curves fitted by nonlinear regression; settings: both partners purified

Point of comparison: B2, “Max binding (% of WT)” value 3 % of WT. Against it:
- B1 — higher, 97.8 % of WT
- B3 — lower, 0.29 % of WT

molecular target: T2, human angiopoietin 2; test: as above; settings: both partners purified

Point of comparison: B2, “Max binding (% of WT)” value 59.4 % of WT. Against it:
- B1 — higher, 90.5 % of WT
- B3 — lower, 0.58 % of WT
